Test results: the nanobody polyreactivity screen of Harvey et al. (2022)

Assay: yeast display, Sf9 membrane polyspecificity reagent, FACS + sequencing; frameworks hold sequencing errors
Summary of the method: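 A synthetic nanobody library was expressed on Saccharomyces cerevisiae BJ5465 by galactose induction for 36–48 hours. The library was stained for 1 hour at 4 °C with 10% biotinylated, detergent-solubilized Sf9 membrane reagent and enriched with streptavidin microbeads before FACS. Low and high (top ~1%) gates were set on anti-HA fluorescence for expression and streptavidin fluorescence for reagent binding, and each polyreactivity label reflects the gate of origin.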

Sequence: QVQLVESGGRLVQPGGSLSLSCADSGNIFYWNTMGWYRQAPGKERELVATISWSGRTTYYADSVKGRFTISRDNEKNTVYLQMNSLKPEDTAVYYCAADVTSGVYSFSFDYLGQGTQVTVSS
- polyreactivity (PSR sort gate): low polyreactivity

Sequence: QVQLVESGGGLVQAGGSLRLSCAASGRIFSLYAMGWYRQAPGKERELVAAITWSSGSTYYADSVKGRFTISRDNAKNTVYLQMNSLKPEDTAVYYCAARVFTLLGYSYEYWGQGTQVTVSS
- polyreactivity (PSR sort gate): low polyreactivity

Sequence: QVQLVESGGGLVQAGGSLRLSCAASGRTFPDYAMGWYRQAPGKERELVARISYSGGSTSYADSVKGRFTISRDNAKNTVYLQMNSLKPEDTAVYYCNRETAYAVGRFEYCGQGTQVTVSS
- polyreactivity (PSR sort gate): low polyreactivity

Sequence: QVQLVESGGGLVQAGGSLRLSCAASGSIFTDNAMGRYRQAPGKERELVAAITSNGGSTYYADSVKGRFTISRDNAKNTVYLQMNSLKPEDTAVYYCAADSLYREDDYWGQGTQVTVSS
- polyreactivity (PSR sort gate): low polyreactivity

Sequence: QVQLVESGGGLVQAGGSLRLSCAASGSTFYYNAMGWYRQAPGKERELVAGITSSGGSTYYADSVKGRFTISRDNAKNTVYLQMNSLKPEDTAVYYCAASYKRSRRGYYWGQGTQVTVSS
- polyreactivity (PSR sort gate): high polyreactivity

Sequence: QVQLVESGGGLVQAGGSLRFSCSASGSIFGYNTMGWYRPAPGKERQLVAAISKSGGSTYYADSVKGRFTISRDNAKNTVYLQMNSLKPEDSAVYYCATYAKQLSPYYYWGQGIQVTVSS
- polyreactivity (PSR sort gate): high polyreactivity

Sequence: QVQLVESGGGLVQAGGSLRLSCAASGSIFAQYAMGWYRQAPGKERELVAAISRTGGGTYYADSVKGRFTISRDNAKNTVYLQMNSLKPEDTAVYYCAAVPGLFYLPYDYWGQGTQVTVSS
- polyreactivity (PSR sort gate): low polyreactivity

Sequence: QVQLVESGGGLVQAGGSLRLSCAASGMTFTKNVMGWYRQAPGKEWELVAVISRSGGSTYYADSVKGRFTISRDNAKNTVYLQMNSLKPEDTAVYYCTVKGPGPSRGNYWGQVTQVTVSS
- polyreactivity (PSR sort gate): low polyreactivity

Sequence: QVQLVESGGGIVQAGGSLRLSCAASGRTFRYNTMGSYRQAPGKERELVAAINSRGGSTYYADSVKGRFTISRDNAKNTVYLQMNSLKPEDTAVYYCAALTRYNTASGYDYWGQGTQVTVSS
- polyreactivity (PSR sort gate): high polyreactivity

Sequence: QVQLVESGGGLVQAGGSLRLSCAAYGSTLLTYTMGWYRQAPGKERELVASITTSGGSTYYADSVKGRFTISRDNAKNTVYLQMNSLKPEDTAVYYWGQGTQVTVSS
- polyreactivity (PSR sort gate): low polyreactivity

Sequence: QDQLVESGGGLVQAGGSLRLSCAATGFIIGWNTMGWYRPAPRKEREVVAAISSGGGSTYYADSVKGRFTISRDNAKNNVYLQMNSLKPEDTAVFYCNAVSFKHVYHTDTYGVNEFVYWGEGTQVTVSS
- polyreactivity (PSR sort gate): high polyreactivity

Sequence: QVQLVESGGGLVQAGGSLRLSCAASGFIFRYNTMGWYRQAPGIVRELVAAISVSGARTYYADSVKGRFTISRDNAKKTVYLQMNSLKPEDTAVYYCNRRYPFYSRYNNDYWGLGTQVTVSS
- polyreactivity (PSR sort gate): high polyreactivity

Sequence: QVQLVESGGGLVQARGSLRLICAASGRTFSYNTMGWYRQAPGKERDLVASITRSGGSTYYSDSVKGRFTISRDNAKNTVYLQMNSLKPEDTAVYYCAADSYPGSTYYDSLDYWGQGTQVTVSS
- polyreactivity (PSR sort gate): low polyreactivity

Sequence: QVQLVESGGGLVQAGGSLRLSCAASGRTCAAYAMGWYRQAPGKERELVAAISIGGSTNYADSVKGRFTISRDNAKNTVYLQLNSLKPEDTAVYYCAAGTWAVSKYLEWLEFYYWGQGTQVTVSS
- polyreactivity (PSR sort gate): high polyreactivity

Sequence: QVQLVESGGGLVQAGGSLRLSCAASGSTFGYYARLWYRQAPGKERDLVAAISYSGGSTYYADSVKGRFTISRDNAKNTVYLQMNSLKPEDTAVYYCAARFTRQMYYWGQGTQVTVSS
- polyreactivity (PSR sort gate): high polyreactivity

Sequence: QVQLVESGGGLVQAGGSLRLSCAASGSTLYYYAMGWYRQAPGKERELVASITKSGASTYYADSVKGRFTISRDNAKNTVYLLMNSLKPEDTAVYYCAADVGAIYDNAENGYWGQGTQVTVSS
- polyreactivity (PSR sort gate): low polyreactivity

Sequence: QVQLVESGGGLVQAGGSLRLSCAASGIIVPNAMGWYRQAPGKERELVAVITSGGSTYYADSVKGRFTISRDNAKNTVSLQMNSLKPEDTAVYYCNKDYAAIDRYDSWGQGTQVTVSS
- polyreactivity (PSR sort gate): low polyreactivity

Sequence: QVQLVESGGGLVQAGGSLRLTSAASGRIFYNYAIGWYRQAPGKERELVAAISSSGGSTYYADSVKGRFTISRDNAKNTVYVQMNSLKPEDTAVYYCAAYSYGLYYTYDYWGQGTQVTVSS
- polyreactivity (PSR sort gate): high polyreactivity

Sequence: QVQLQESVGGLVQAGGSLLLSCAASGNIFPTDRMGWYRQAPGKELEFVATISHGGSTNYADSVKGRFTISRDNAKNTVYLEMNSLKPEDTAVYYCAVWSLGRWRHYFWGQGTQVTVSS
- polyreactivity (PSR sort gate): low polyreactivity

Sequence: QVQLVESGGGLVQAGGSLRLTCAASGITFYGNAMGWYRQAPGKERELVANTYYADSVKGRFTISRDNAKNTVYLQMNSLIAEDTAVYYCATRNARYRSQPPGYDYWGQGTQVTVSS
- polyreactivity (PSR sort gate): low polyreactivity

Sequence: QVQLVESGGGLVQAGGSLRLSCAASGSTFVYYTMGCYRPAPGKETELVAAINGSGGSTYYADSVKRRFTISRDNAKNTVYLQMNSLKPEDTAVYYCDAVYWDGDDYWGQGTQVTVSS
- polyreactivity (PSR sort gate): high polyreactivity

Sequence: QVNLVESGGGLVQAGGSLRLSCAASGIIFIAYAMRWYRQAPGKERELVADISIGGSTNYADSVKGRFTISRDNAKNTVYLEMNSLKPEDTAVYYCNAGGGFYGSTVEHDYWGKGTQVTVSS
- polyreactivity (PSR sort gate): low polyreactivity

Sequence: QVQLVESGGGLVQAGGSLRLSCAASGRTFRYYTMGWYRQAPGKERELVAAISRGGRTYYADSVKGRFTISRDNGKNTVYLQMNSLKPEDTAVYNCAAQLFREYYYWGHGTQVTVSS
- polyreactivity (PSR sort gate): high polyreactivity

Sequence: QVQLVESGGGLVQAGGSLRLSCAASGSTFTLYAMGWYRKAPGKERELVAAISRSGGRTYYADSVKGRFTISRDNAKNTVYLQMNSLKPEDTAVYYCNAPYKQDYDYWGQGTQVTVSS
- polyreactivity (PSR sort gate): high polyreactivity

Sequence: QVQLVESGGGLVQAGGSLRLSCAASGFTFVKNAMGWYRQAPGKERELVAALSSRGGSTYYADSVKGRFTISRDNAKNTVYLQMNSLKPEDTAVYYCATERERTMGYWGQGTQVTVSS
- polyreactivity (PSR sort gate): high polyreactivity

Sequence: QVQLVESGGGLDQAGGSLRLSCAASGFIYPVYTMGGYRQAPGKERELVAAITQIGGSTHYADTVKGRFTISRDNAKNTVYLQMNSLKPDETAVYYCNAVPSYGTEYDYWGHGTQVTVSS
- polyreactivity (PSR sort gate): low polyreactivity

Sequence: QVQLVESGGGLVQAGGSLRLSCASSALIFYWYPIGWYRQAPGKESELVAAISYGGTTTSYADSVKGRFTISRDNATNTVYLQMNSLKPEDTAVYYCAADWLYGHFQITGYPVGVDYWGQGTQVTVSS
- polyreactivity (PSR sort gate): low polyreactivity

Sequence: QVQLVESGGGLVQAGGSLRLSCAASGFIFYGYAKGWYRQAPGKERELVAGISTGGSKNYADSVKGRFTISRDNAKNTVYVQMNSLKPEDTAVDYCAVVDVEEHVGHWGQGTQVTVSS
- polyreactivity (PSR sort gate): low polyreactivity

Sequence: QVQLVESGGGLVQAGGSLRLSCAASGNIFVPNAMGWYRQAPGKERGLVAAIRRGGSTNYADSVKGRFTISRDNAKNNVYLQMNSLKPEDTGVYYCARSRVSFTDLEGYYWGQGTQVTVSS
- polyreactivity (PSR sort gate): low polyreactivity

Sequence: QVQLVESGGGLVQAGGSLRLSCAASGITFHRYAMRWYRQAPGKERELVAAINGGGGSTYYADSVKGRFTISRDNAKNTVYLQMNSLKPEDTAVYYCAAEVQNGVHIYDYWGQGTQVTVSS
- polyreactivity (PSR sort gate): high polyreactivity

Sequence: QVQLVESGGGLVQAGGSLRLSCAASGSTFRNYAMGWYRQAPGKERELVAAISGSGGRTNYADSVKGRFTISRDNAKNTVYLQMNSLKPEDNAVYYCNARFPDWALSEISHSTTYGYWGQGTQVTVSS
- polyreactivity (PSR sort gate): low polyreactivity

Sequence: QVQLVESGGGLVQAGASLRLSCAASGIIVHEYAMGWYRQAPGKERELVASISWNDGSTYADSVKGRFTISRDNAKITVYLQMNCLKPEDTAVYYCAADYPYYPFSSIYDYWGQGTQVTVSS
- polyreactivity (PSR sort gate): low polyreactivity

Sequence: QVQLVESGGGLVQAGGSLRLSCAASGSIFKPYAMGWYRQAPGKERELVAAINRGGTSTYYADSVKGRFTISRDNAKNTVYFQMNSLKPEDTAVYYCAAPNRYSVPMYYWGQGTQVTVSS
- polyreactivity (PSR sort gate): low polyreactivity

Sequence: QVQLVESGGGLVQAGGSLRLSCAASGSTFYTNAMGWYRQAPGKERELVAAISASVGSTYYADSVKGRFTISRDNAKNTVYLQMNSLKPEDTAVYYCAADRGFYYEYDYWGQGTQVTVSS
- polyreactivity (PSR sort gate): low polyreactivity

Sequence: QVQLVESGVRLVQAGGSHRLSCAANGFIFRRYAMGWYIQAPGKERELVAAITRSGGTTYYADSVKGRFTISRDNAKNTVYFQLNSLKPEDTAVYYCDARRPYTYDSGDILEMDHWGQGTQVTVSS
- polyreactivity (PSR sort gate): high polyreactivity

Sequence: QVQLVESGGGLVQAGGSLRLSCAASGSTFRSYAMGWYRQAPGKERELVAAISRGGSTYYADSVKGRFTISRDNAKNTVYLQMNSLKPEDTAVYYCAARPPRGSWQYDYWGQGTQVTVSS
- polyreactivity (PSR sort gate): high polyreactivity

Sequence: QVQLVESGGGLVQAGGSLRLSCAASGRTFRKYAMGGYRHAPGKEREFVASITWSGGSTYYADSVKGRFTISRDNAKNTVYLQMNSLKPEDTAVYFCAAESWFKYVYWGQGTQVTVSS
- polyreactivity (PSR sort gate): low polyreactivity

Sequence: QVQLVESGGGLVQAGGSLRLSCAASGSIFTEKAMGWYRQAPGKERELVATITITGSTNYADSVKGRFTISRDNAKNTVYLQLNSLKPEETAVYYCNADLYIAFSASAYDYWGQGTQVTVSS
- polyreactivity (PSR sort gate): low polyreactivity

Sequence: QVQLVESGGRLVQAGGSLRLSCAASGIIFSGYAMGRYRPAPGTVREFVAAIDSVTSTYYADSVKGRFTTSRDNANNTVYLQMISLKPEVTAVYYCNARSDCTWYTLDYWGQGTQVTVSS
- polyreactivity (PSR sort gate): high polyreactivity

Sequence: QDQHVESGGGLVQAGGSLRLSCAAPGITFYPYDMGWYRQAPGKERELVASISRSGGSTYYADSVKGRFTISRDNAKNTVYLQMNSLKPEDTAVYYCNAYSTRGMYSWGQGTQVTVSS
- polyreactivity (PSR sort gate): high polyreactivity

Sequence: QVQLVESGGGLVQAGGSLRLSCADSGRTFNYYDMGWYRQAPGKERELVASITGSGGNTYYADSVKGRFTFSRDNAKNTVYLQMNSLKPEDTAVYYCAKAIGNFLYYYWLYHSSYEYDYWGQGTQVTVSS
- polyreactivity (PSR sort gate): low polyreactivity

Sequence: QVQLVESGGGLVQAGGSLRLSCAASGSTLGRYAMGWYIQAPGKERELVAAISRGGGSTYYADSVKGRFTISRDNAKNTVYLQMNSLKPEDTAVYYCAARQYIGSPPHRRRFDYWGQGTQVTVSS
- polyreactivity (PSR sort gate): high polyreactivity

Sequence: QVQLVESGGGLVQAGGSLRLSCSASGFIYPNNAMGWYRQAPGKERELVARISYGGGDTHYADSVKGRFTISRDNAKNTVYLQMNSLKPEDTAVYYCAVKDGQDDYWGQGTQVTVSS
- polyreactivity (PSR sort gate): low polyreactivity
